Assay results from the supplement of paper PMC10567573.

B1: WSB1 (parent)
chain: FSHDGLHVASLADDKMVRFWRIDE

Variants of: B1
Experiment: protein stability index of a GFP-peptide fusion (GPS, HEK-293T) (PSI 1-6); higher = more stable
Conditions: c terminus: a fixed tail appended
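Further: lentivirally expressed fusions sorted by FACS into six bins by GFP to DsRed ratio, PSI derived from sequencing read proportions per bin multiplied by bin number.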

Protein stability index, by site and new letter:
R21: E 1.8; A 1.39; S 2.12; H 2.42; P 2.35; I 3.26; N 2.15; Q 1.44; Y 3.45; L 1.59; C 3.2; K 2; W 2.12; D 2.19; T 1.17; G 1.47
A9: P 1.76; K 1.67; S 2.17; D 1.71; L 2.62; T 1.25; M 1.79; N 2.09; H 1.7; V 2.55; C 2.51; F 5.19; E 2.01; W 2.44; Q 1.89; I 2.66
H3: C 3.26; W 1.62; A 2.89; D 2.2; Q 2.03; N 1.92; Y 1.19; E 1.71; T 1.89; M 1.79; L 1.37; S 3.07; K 2.08; G 2.95; V 1.11; P 1.67
D14: W 2.53; N 2.03; C 2.36; P 2.05; M 1.97; I 3.14; K 1.96; Y 1.52; T 1.83; R 1.95; F 2.93; E 1.58; L 1.58; H 2.2; Q 1.78
H7: D 3.61; I 2.17; K 1.17; C 1.86; P 2.09; N 1.68; R 3.03; E 1.84; Q 1.08; M 1.03; G 1.4; A 1.58; V 2.42; L 1; F 2.87; T 1.65
D13: G 1.04; N 2.09; K 1.88; I 1.21; C 1.02; P 1.56; W 2.68; A 1.02; T 1.36; H 3.41; L 2.13; R 1.42; M 1.22; E 1.31; V 2.03
V8: Q 3.68; D 1.88; T 1.86; G 1.75; I 1.92; E 2.59; H 1.83; R 1.84; L 1.53; C 1.38; N 1.68; S 2.41; W 2.92; M 1.03; A 1.94; K 1.1
D4: N 2; T 2.1; E 1.94; L 1.53; P 2; K 1.8; Y 1.65; C 1.73; H 1.43
K15: L 2.49; W 1.67; G 1.69; C 1.53; T 1.44; R 2.02; A 2.18; N 1.65; E 2.68; Y 1.34; S 1.76; D 2.33; I 1.49; H 1.65; F 1.35; V 2.78; Q 1.04
E24: K 1.84; D 1.56; G 1.23; A 3.01; C 4.37; M 2.05; H 1.16; F 2.68; I 2.28; L 2.85
L6: Q 2.33; D 2.07; I 2.15; C 1.55; N 3.26; R 1.92; A 1.98; P 1.63; M 2.41; H 2.27; F 2.43; K 1.65; T 1.67
W20: D 3.51; A 2.48; C 2.42; M 2.67; N 2.66; S 2.7; G 2.79; P 2.6; T 2.85; K 2.69; H 2.67; Y 2.26; V 2.77; E 3.18; F 2.09; L 1.88; I 2.85
S2: Y 1.83
S10: T 1.64; A 1.74; G 1.65; F 3.47; V 1.11; K 2.84; I 1.69; L 1.87; N 1.75; E 2.02; D 2.03; P 1.63; Q 1.82
A12: Q 2.55; S 1.35; V 1.75; C 1.95; Y 1.66; N 2.43; K 1.71; W 1.23; D 2.32; G 3.04; P 1.57; L 2.04; T 1.79; I 1.93; H 2.99
L11: N 1.78; Y 1.3; Q 1.67; E 1.65; V 2.03; K 2.24; S 1.05; M 1.69; P 1.47; D 2.06; A 2.24; G 1.71; I 2.2; H 2.98; R 1.66; F 2.5
F19: L 3.32; C 2.32; V 2.15; M 3.75; S 2.42; W 1.57; D 3.37; N 2.62; I 1.49; E 3.92; A 2.27; K 2.38; Q 2.03; R 3.11; Y 2.33; T 3.13; P 2.65; H 2.66; G 2.38
D23: M 1.73; R 1.45; H 1.85; F 2.1; V 1.81; G 2.25; Q 1.9; N 1.8; P 3.58; L 2.35; T 1.33; W 2.11; C 1.21; I 3.06; K 2.02; E 1.58; Y 1.34
V17: A 1.15; I 2.42; D 1.96; F 1.58; S 1.54; K 1.85; P 2.42; Q 2.14; N 1.5; E 2.75; R 2.03; M 1.79; Y 1.91; G 1.03; H 1.51; L 1.27; C 3.55; T 1.56
G5: Y 1.27; E 2.67; M 3.4; T 2.27; V 2.61; C 1.34; K 1.96; I 1.89; R 2.07; P 1.81; N 3.01; A 1.92; Q 2.15; D 3.16; L 1.74
R18: C 1.43; P 1.83; Q 2.01; G 1.26; K 2.12; T 1.08; S 1.31; A 1.41; L 1.32; I 2.23; D 2.03; M 2.37; E 1.92; Y 1.89
M16: K 2.23; A 1.57; L 1.56; E 1.88; T 1.16; N 1.36; P 2.05; I 1.4; H 2.45; V 2.88; R 2.76; W 1.57; S 2.12; C 2.98; Y 1.66; G 1.83
I22: M 2.16; E 2.54; D 2.27; K 2.66; Y 1.69; S 1.66; H 2.31; Q 2.45; W 1.77; N 2.09; G 3.54; T 1.65; F 1.63; P 2.64
